This assay concerns the target T1, β8 chain of αvβ8 integrin (Itgβ8) expressed on human tumor Treg cells (human, UniProt P26012 43-769; P06756 31-1048).
T1 construct: whole, on cells; also called Itgb8 chain on human Treg cells; human Itgβ8
The assay is described as follows: staining of cells of one fresh human colonic tumor (data not shown).

T1 sequence (P26012 43-769, chain 1 of 2): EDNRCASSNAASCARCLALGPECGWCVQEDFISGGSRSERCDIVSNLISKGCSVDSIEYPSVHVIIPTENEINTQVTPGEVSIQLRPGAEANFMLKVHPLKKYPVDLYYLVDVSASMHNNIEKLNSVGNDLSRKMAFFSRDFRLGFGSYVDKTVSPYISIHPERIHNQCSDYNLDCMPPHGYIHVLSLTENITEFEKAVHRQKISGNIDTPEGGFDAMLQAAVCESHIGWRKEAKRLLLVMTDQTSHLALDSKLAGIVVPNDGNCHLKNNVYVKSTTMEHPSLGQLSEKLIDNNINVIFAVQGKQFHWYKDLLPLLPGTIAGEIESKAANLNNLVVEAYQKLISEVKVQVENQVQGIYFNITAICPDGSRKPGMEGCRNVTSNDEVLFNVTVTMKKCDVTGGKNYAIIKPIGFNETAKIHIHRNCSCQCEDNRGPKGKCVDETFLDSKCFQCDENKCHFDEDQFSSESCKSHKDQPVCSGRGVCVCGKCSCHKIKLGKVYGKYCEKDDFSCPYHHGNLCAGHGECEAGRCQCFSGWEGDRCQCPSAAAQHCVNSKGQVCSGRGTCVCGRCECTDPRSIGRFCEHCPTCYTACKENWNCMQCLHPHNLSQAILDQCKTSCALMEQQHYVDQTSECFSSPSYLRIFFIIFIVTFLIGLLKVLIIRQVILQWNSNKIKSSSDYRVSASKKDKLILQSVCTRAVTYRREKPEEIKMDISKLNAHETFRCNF
T1 sequence (P06756 31-1048, chain 2 of 2): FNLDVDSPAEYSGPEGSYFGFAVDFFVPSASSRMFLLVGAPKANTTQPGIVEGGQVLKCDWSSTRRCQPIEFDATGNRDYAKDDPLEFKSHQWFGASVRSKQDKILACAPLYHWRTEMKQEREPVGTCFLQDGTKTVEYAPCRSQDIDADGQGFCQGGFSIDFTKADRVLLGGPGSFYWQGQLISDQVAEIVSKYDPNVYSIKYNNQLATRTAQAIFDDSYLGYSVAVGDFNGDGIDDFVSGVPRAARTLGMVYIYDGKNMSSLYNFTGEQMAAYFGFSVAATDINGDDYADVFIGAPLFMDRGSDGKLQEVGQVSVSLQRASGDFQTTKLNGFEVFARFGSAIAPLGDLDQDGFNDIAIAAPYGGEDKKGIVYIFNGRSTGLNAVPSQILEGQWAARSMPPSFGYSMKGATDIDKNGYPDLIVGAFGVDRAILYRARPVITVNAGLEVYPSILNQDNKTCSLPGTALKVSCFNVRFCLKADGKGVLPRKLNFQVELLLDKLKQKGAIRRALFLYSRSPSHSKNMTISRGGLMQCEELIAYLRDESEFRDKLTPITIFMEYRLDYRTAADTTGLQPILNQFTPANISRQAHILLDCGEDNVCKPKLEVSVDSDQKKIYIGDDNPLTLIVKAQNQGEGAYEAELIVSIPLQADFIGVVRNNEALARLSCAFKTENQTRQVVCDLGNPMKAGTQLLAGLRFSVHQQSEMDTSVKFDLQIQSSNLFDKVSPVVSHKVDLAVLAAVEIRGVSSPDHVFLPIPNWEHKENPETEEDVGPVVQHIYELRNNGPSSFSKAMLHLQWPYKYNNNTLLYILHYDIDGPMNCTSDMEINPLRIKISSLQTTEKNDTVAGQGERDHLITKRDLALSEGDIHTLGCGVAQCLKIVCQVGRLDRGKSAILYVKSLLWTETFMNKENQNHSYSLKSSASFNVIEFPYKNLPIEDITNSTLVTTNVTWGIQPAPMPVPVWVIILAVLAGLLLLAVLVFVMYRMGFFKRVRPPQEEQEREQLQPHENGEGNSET

B1: Mab 9B2 (antibody, V domains shown)
VH: QVQLQQSGAELAKPGASVKLSCKASGYTFTRYWMHWVKQRPGQGLEWIGHINPSSGYTKYNQKFKDKATLTADKSSSTAYMQLSSLTYEDSAVYYCAREVYYYGSSYGDFDYWGQGTTLTVSS
VL: QIVLTQSPAIMSASPGEKVTISCSASSSVSYMYWYQQKPGSSPKPWIYRTSNLASGVPARFSGSGSGTSYSLTISSMEAEDAATYYCQQYHSYPLTFGAGTKLELK
notes: Mouse hybridoma antibody tested as clone supernatant; also called 9B2 mAb; clone 1
For B1, the binding result is reported as “binds”.

B2: Mab 1G10G4 (antibody, V domains shown)
VH: QVQLQQSGAELARPGASVKMSCKASGYTFTSYTMHWVKQRPGQGLEWIGYINPSSGYTKYNQKFKDKATLTADKSSSTAYMQLSSLTSEDSAVYYCARAEGLRAWFAYWGQGTLVTVSA
VL: DIVMTQSQKFMSTSVGDRVSVTCKASQNVGTNVAWYQQKPGQSPKALIYSASYRYSGVPDHFTGSGSGTDFTLTIINVQSEDLAEYFCQQYNSYPYTFGGGTKLEIK
notes: Mouse hybridoma antibody tested as clone supernatant; also called 1G10G4 mAb; clone 3
As for B2, the binding result is recorded as “binds”.

The record behind these values is US20260035468A1 (INSTITUT NATIONAL DE LA SANT ET DE LA RECHERCHE M DICALE, published 2026).
